Biological target: short cTag (s-cTag) on a CD8α stalk (human)
Test: flow cytometry on cells; 293T cells transiently transfected with the mimic constructs (co-expressed EGFP), stained with APC-conjugated streptavidin 48 hr later; MedFI of EGFP-positive cells; staining of cTag8 293T cells reversed by 1 mM biotin, 1 hr, room temperature

Chain of streptavidin allophycocyanin (APC) (P22629 25-183): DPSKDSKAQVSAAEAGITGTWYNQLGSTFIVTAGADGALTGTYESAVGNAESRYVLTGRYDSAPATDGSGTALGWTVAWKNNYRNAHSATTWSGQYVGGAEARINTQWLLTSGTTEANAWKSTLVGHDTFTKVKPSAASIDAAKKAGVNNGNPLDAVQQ

Work on “streptavidin allophycocyanin (APC) (from UniProt P22629 25-183) (natural protein)” yielded a median fluorescence intensity (MedFI) of 10000.

— PMC6258877
